Assay results: paper PMC4351158 (Structure (London, England : 1993), 2015)
Numbering of substitutions follows the chain as printed. Where no end group is shown, it is not given here. fluorescein = fluorescein, a fluorescent label on the peptide N-terminus

How the values were obtained:
Experiment in all cases: fluorescence polarisation
DegS F234A = molecular target: T1, DegS F234A (E. coli, UniProt P0AEE3 27-355, F234A)
T1 sequence (looked up): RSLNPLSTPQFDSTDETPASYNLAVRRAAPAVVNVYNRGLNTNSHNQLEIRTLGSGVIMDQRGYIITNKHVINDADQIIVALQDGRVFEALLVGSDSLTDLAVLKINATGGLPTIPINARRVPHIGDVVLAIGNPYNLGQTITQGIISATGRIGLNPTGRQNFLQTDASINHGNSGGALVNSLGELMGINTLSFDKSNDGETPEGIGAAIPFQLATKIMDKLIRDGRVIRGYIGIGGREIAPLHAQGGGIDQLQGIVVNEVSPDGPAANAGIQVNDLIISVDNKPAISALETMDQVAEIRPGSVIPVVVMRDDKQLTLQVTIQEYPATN

DegS N197A = molecular target: T2, DegS N197A (E. coli, UniProt P0AEE3 27-355, N197A)
T2 sequence (looked up): T1 sequence (looked up) with N171A, A208F

DegS P229A = molecular target: T3, DegS P229A (E. coli, UniProt P0AEE3 27-355, P229A)
T3 sequence (looked up): T1 sequence (looked up) with P203A, A208F

DegS Y162A = molecular target: T4, DegS Y162A (E. coli, UniProt P0AEE3 27-355, Y162A)
T4 sequence (looked up): T1 sequence (looked up) with Y136A, A208F

DegS F220A/H198P = molecular target: T5, DegS F220A/H198P (E. coli, UniProt P0AEE3 27-355, F220A | H198P)
T5 sequence (looked up): T1 sequence (looked up) with H172P, F194A, A208F

DegS R178A = molecular target: T6, DegS R178A (E. coli, UniProt P0AEE3 27-355, R178A)
T6 sequence (looked up): T1 sequence (looked up) with R152A, A208F

fluorescein-DNRDGNVYYF [fluorescent OMP peptide fluorescein-DNRDGNVYYF]
Kd (DegS F234A): 5.9 ± 0.6 µM | Kd (DegS N197A): 1.4 ± 0.1 µM | Kd (DegS P229A): 1.6 ± 0.2 µM | Kd (DegS Y162A): 1.9 ± 0.4 µM | Kd (DegS F220A/H198P): 1.6 ± 0.1 µM | Kd (DegS R178A): 3.6 ± 0.2 µM
